# Columns and labels:
# human KDR [1] = target: T1, human KDR (human, UniProt P35968 20-1356); experiment: cell-based or functional assay
# human KDR [2] = target: T1, human KDR; experiment: cell-based or functional assay; remark: listed apart in the source
# human KDR [3] = target: T1, human KDR; experiment: cell-based or functional assay; remark: listed apart in the source
# [4] = target: T2, mouse KDR (Flk-1)/Fc (Cat. #443-KD/CF, R&D Systems, Inc.) (mouse, UniProt P35918 20-762); experiment: ELISA, Flk-1 coat 5 ug/mL, antibody 1 ug/mL
# T2 construct: Bought reagent; also called mouse VEGFR2; KDR mouse ortholog; not shown: Fc of the bought fusion protein
# Procedure: (§1) The cross-reactivity of purified antibodies was tested against KDR mouse ortholog KDR mouse ortholog (mouse VEGFR2, or Flk-1) and human VEGFR1 (Flt-1). The ability of the antibodies to bind soluble KDR Ig4-7 domain and to the entire KDR extracellular domain (ECD) was also measured.
# (§2) Cross-reactivity experiments were carried out and measured using an ELISA based assay as described in Example 6. […] Antibody controls included IgG1 and IgG4 (Sigma-Aldrich, Cat. #15154 and #14639, respectively).
# [5] = target: T2, mouse KDR (Flk-1)/Fc (Cat. #443-KD/CF, …); experiment: ELISA, Flk-1 coat 5 ug/mL, antibody 0.1 ug/mL
# Procedure: as §1, §2
# [6] = target: T3, whole KDR-ECD (Cat. # 676490, Calbiochem) (human, UniProt P35968 20-764); experiment: ELISA, KDR-ECD coat 5 ug/mL, antibody 1 ug/mL
# T3 construct: extracellular domain; Bought soluble protein; also called soluble KDR; VEGF Receptor 2 D1-7
# Procedure: as §1, §2
# [7] = target: T2, mouse KDR (Flk-1)/Fc (Cat. #443-KD/CF, …); experiment: ELISA, Flk-1 coat 5 ug/mL, antibody 0.01 ug/mL
# Procedure: as §1, §2
# [8] = target: T3, whole KDR-ECD (Cat. # 676490, …); experiment: ELISA, KDR-ECD coat 5 ug/mL, antibody 0.1 ug/mL
# Procedure: as §1, §2
# [9] = target: T3, whole KDR-ECD (Cat. # 676490, …); experiment: ELISA, KDR-ECD coat 5 ug/mL, antibody 0.01 ug/mL
# Procedure: as §1, §2
# soluble KDR Ig4-7 domain [10] = target: T4, soluble KDR Ig4-7 domain (human, UniProt P35968 328-764); experiment: ELISA, KDR Ig4-7 coat (1:1 diln.), antibody 1 ug/mL
# T4 construct: domain: Ig4-7 domain; also called b-KDRIg4-7-myc-his; Ig4-7 domain of KDR; not shown: myc-his tag of the pSecTag construct
# Procedure: as §1, §2
# soluble KDR Ig4-7 domain [11] = target: T4, soluble KDR Ig4-7 domain; experiment: ELISA, KDR Ig4-7 coat (1:1 diln.), antibody 0.1 ug/mL
# Procedure: as §1, §2
# cynomolgus KDR = target: T5, cynomolgus KDR (cynomolgus monkey, UniProt A0A2K5VE63 20-1356); experiment: FACS on Cyno KDR/293T transfectants, antibody 5 ug/mL
# T5 construct: whole, on cells; also called Cyno KDR
# Procedure: The binding of purified antibodies to cell-bound cynomolgus KDR (with parental cells as negative control) was tested by FACS analysis in this assay.
# Cynomolgus KDR was cloned in 3 pieces. One piece was PCR amplified from cynomolgus lung cDNA, and the remaining two pieces were PCR amplified from cynomolgus kidney cDNA. The three PCR products were inserted into pCR3.1 Bid vector. […] Transfected cells were seeded at 50,000 cells/well and incubated with 5 μg/mL of candidate antibody for one hour at 4° C. The cells were then washed and incubated with secondary antibody (Cy5-conjugated goat anti-human antibody, or Cy5-conjugated rabbit anti-goat antibody, plus 7-Amino-Actinomycin (7AAD)) for 15 minutes at 4° C. Binding between cynomolgus KDR and purified antibody was detected by FACS analysis.
# soluble KDR Ig4-7 domain [12] = target: T4, soluble KDR Ig4-7 domain; experiment: ELISA, KDR Ig4-7 coat (1:1 diln.), antibody 0.01 ug/mL
# Procedure: as §1, §2
# human KDR [13] = target: T1, human KDR; experiment: FACS titration of purified antibody on HUVEC cells (FACS Kd)
# Procedure: The binding affinities of the purified antibodies for endogenously-expressed KDR in HUVEC cells was measured. HUVEC cells were seeded at 150,000 cells/well and incubated with titrations of purified antibody for 4 hours at 4° C. The cells were then washed and incubated with goat anti-human IgG-Fc-Cy5+5 μg/mL 7-Amino-Actinomycin (7AAD) for 30 minutes at 4° C. Bound KDR was detected using FACS analysis.
# human KDR [14] = target: T1, human KDR; experiment: FACS competition on 293T/human KDR transfectants; antibody 5 ug/mL first, then competitor VEGF165 50 ng/mL; bound VEGF165 detected
# Procedure: (§3) Transfected cells were then seeded at 50,000 cells/well and incubated with 5 μg/mL of candidate antibody for one hour at 4° C. […] After washing, the cells were incubated with Cy5-conjugated rabbit anti-goat antibody plus 7AAD for 15 minutes at 4° C.
# human KDR [15] = target: T1, human KDR; experiment: FACS competition on 293T/human KDR transfectants; antibody 5 ug/mL first, then competitor VEGF165 50 ng/mL; inhibition of VEGF binding
# Procedure: as §3
# T2 sequence (P35918 20-762 limits assumed): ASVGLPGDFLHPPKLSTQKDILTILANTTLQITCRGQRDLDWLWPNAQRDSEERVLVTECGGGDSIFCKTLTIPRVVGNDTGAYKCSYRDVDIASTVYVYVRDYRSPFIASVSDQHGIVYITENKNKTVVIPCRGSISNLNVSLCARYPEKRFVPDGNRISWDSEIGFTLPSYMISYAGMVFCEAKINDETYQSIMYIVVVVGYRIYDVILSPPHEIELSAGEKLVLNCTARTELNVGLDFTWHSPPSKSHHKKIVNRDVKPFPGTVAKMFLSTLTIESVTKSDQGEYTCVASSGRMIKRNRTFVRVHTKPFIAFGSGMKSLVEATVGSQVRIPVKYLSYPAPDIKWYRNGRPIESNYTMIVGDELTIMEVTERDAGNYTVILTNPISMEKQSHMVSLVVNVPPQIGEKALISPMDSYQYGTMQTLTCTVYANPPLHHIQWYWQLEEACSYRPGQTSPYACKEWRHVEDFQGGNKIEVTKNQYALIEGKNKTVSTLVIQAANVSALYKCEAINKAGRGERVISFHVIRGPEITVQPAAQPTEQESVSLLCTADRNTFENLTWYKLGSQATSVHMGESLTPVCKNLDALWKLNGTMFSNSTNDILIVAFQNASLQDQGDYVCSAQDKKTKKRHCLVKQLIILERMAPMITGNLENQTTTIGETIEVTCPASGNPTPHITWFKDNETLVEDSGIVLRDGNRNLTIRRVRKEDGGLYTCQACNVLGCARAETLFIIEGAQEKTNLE
# T3 sequence (P35968 20-764): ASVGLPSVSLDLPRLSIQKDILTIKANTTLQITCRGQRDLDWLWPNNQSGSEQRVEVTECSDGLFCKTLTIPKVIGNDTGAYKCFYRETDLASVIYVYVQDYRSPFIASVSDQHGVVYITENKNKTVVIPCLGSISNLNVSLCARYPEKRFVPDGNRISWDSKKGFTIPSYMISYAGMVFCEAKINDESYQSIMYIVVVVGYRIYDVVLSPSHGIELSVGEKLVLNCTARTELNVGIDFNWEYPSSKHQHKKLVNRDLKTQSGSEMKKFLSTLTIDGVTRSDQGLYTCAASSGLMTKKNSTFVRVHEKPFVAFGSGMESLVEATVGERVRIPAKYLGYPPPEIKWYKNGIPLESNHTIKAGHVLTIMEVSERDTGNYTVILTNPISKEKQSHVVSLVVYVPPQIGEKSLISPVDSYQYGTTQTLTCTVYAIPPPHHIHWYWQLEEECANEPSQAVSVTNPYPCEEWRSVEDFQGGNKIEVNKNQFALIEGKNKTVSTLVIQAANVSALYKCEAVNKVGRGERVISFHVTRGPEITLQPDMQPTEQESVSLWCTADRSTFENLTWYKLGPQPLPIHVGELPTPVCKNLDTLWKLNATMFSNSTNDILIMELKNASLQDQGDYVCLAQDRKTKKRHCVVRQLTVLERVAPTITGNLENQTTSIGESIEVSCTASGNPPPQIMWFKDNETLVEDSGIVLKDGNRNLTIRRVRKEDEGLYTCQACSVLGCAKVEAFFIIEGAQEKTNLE
# T1 sequence (P35968 20-1356): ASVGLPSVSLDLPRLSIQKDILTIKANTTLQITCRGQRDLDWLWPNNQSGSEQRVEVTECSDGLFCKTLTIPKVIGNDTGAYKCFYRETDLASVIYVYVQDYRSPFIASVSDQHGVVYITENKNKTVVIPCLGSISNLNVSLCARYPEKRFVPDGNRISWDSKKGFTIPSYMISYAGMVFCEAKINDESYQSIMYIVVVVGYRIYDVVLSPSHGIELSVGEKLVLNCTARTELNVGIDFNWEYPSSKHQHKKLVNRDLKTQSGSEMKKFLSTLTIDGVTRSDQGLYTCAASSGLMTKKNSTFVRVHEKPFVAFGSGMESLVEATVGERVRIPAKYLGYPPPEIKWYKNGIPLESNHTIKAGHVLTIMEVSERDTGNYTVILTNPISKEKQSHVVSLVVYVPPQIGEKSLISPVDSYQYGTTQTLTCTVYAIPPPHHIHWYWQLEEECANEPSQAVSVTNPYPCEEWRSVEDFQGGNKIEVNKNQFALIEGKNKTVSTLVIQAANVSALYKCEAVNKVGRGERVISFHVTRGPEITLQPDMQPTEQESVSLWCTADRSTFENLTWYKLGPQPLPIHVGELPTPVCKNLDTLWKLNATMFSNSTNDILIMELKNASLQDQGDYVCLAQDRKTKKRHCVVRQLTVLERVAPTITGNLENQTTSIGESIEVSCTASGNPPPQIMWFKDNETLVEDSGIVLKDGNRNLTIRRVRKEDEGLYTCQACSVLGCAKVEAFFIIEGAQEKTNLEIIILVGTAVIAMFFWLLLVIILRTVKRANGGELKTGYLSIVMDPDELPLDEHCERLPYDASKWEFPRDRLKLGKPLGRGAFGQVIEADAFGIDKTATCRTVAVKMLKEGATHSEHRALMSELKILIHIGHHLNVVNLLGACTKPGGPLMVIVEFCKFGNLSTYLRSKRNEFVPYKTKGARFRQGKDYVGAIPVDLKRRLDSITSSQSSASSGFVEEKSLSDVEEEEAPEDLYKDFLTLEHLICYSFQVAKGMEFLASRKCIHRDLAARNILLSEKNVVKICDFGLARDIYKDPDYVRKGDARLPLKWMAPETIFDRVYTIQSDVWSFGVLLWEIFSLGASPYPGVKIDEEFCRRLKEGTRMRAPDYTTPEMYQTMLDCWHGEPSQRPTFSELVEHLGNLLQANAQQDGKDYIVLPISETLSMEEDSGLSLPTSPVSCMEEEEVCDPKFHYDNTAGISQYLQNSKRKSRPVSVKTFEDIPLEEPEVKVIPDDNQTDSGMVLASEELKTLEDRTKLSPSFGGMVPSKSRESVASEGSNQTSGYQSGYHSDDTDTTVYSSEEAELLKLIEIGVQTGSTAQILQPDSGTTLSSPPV
# T4 sequence (P35968 328-764): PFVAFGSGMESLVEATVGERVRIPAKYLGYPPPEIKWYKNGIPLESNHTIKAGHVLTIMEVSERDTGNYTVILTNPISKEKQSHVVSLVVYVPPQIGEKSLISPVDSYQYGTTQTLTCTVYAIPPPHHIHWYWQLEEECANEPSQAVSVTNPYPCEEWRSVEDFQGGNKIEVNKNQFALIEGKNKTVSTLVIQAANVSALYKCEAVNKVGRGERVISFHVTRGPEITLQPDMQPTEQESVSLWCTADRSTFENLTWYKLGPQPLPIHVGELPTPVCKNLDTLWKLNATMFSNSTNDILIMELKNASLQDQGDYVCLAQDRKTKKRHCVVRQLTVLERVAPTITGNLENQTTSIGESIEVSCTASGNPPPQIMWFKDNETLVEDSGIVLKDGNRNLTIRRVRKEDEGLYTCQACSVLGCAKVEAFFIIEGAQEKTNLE
# T5 sequence (A0A2K5VE63 entry or part of it): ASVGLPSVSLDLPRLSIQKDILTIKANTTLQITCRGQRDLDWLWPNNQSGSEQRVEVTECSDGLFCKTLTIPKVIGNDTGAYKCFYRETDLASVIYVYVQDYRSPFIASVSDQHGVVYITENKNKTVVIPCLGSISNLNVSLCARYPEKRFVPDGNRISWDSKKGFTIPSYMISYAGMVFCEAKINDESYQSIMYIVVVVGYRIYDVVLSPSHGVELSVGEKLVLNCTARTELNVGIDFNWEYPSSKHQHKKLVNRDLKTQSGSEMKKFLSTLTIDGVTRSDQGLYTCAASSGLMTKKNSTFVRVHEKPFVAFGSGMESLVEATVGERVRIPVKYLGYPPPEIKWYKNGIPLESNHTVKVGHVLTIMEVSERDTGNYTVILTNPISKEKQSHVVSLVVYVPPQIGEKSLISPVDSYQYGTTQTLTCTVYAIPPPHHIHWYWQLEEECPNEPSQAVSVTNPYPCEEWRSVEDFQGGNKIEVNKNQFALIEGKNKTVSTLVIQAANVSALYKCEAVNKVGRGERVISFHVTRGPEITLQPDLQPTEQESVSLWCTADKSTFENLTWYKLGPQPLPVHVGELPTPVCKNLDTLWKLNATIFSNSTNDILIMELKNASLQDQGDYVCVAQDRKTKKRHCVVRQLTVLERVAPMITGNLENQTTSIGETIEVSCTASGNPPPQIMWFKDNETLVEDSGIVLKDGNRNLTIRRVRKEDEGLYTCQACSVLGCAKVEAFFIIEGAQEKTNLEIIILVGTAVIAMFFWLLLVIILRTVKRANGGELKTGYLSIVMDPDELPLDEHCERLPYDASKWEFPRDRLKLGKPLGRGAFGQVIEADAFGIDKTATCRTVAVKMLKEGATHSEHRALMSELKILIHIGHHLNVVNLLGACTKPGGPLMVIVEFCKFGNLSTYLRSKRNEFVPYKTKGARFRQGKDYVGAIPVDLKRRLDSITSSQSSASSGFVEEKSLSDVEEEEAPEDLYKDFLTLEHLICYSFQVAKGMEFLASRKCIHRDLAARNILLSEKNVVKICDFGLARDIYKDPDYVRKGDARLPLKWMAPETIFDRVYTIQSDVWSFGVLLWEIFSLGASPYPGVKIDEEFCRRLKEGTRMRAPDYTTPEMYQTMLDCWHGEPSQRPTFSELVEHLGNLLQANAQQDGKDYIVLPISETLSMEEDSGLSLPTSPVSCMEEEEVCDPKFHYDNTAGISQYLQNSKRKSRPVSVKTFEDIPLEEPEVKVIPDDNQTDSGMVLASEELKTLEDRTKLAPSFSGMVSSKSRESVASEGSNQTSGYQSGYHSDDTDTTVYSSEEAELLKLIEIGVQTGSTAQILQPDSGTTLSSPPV
Binder,"KDR tyrosine phosphorylation in HUVEC, EC50 (nM), Average (human KDR [1]) [nM]","KDR tyrosine phosphorylation in HUVEC, EC50 (nM), N = 1 (human KDR [1]) [nM]","KDR tyrosine phosphorylation in HUVEC, EC50 (nM), N = 2 (human KDR [1]) [nM]","KDR tyrosine phosphorylation in HUVEC, Maximum Inhibition at 100 nM (% Inhibition), Average (human KDR [1]) [%]","KDR tyrosine phosphorylation in HUVEC, Maximum Inhibition at 100 nM (% Inhibition), N = 1 (human KDR [1]) [%]","KDR tyrosine phosphorylation in HUVEC, Maximum Inhibition at 100 nM (% Inhibition), N = 2 (human KDR [1]) [%]","HUVEC survival, Maximum Inhibition at 50 nM (% Inhibition), Average (human KDR [2]) [%]","HUVEC survival, Maximum Inhibition at 50 nM (% Inhibition), N = 1 (human KDR [2]) [%]","HUVEC survival, Maximum Inhibition at 50 nM (% Inhibition), N = 2 (human KDR [2]) [%]","6-keto Prostaglandin F1α release, EC50 (nM), Average (human KDR [3]) [nM]","6-keto Prostaglandin F1α release, EC50 (nM), N = 1 (human KDR [3]) [nM]","6-keto Prostaglandin F1α release, EC50 (nM), N = 2 (human KDR [3]) [nM]","6-keto Prostaglandin F1α release, Maximum Inhibition (% Inhibition), Average (human KDR [3]) [%]","6-keto Prostaglandin F1α release, Maximum Inhibition (% Inhibition), N = 1 (200 nM) (human KDR [3]) [%]","6-keto Prostaglandin F1α release, Maximum Inhibition (% Inhibition), N = 2 (333 nM) (human KDR [3]) [%]",ELISA reading [4],ELISA reading [5],ELISA reading [6],ELISA reading [7],ELISA reading [8],further results
"33B1 (antibody, V domains shown, Fully human monoclonal antibody from a XenoMouse hybridoma (IgG2 or IgG4 strain), purified) VH: EVQLVESGGGLVKPGGSLRLSCAASGFTFSSYTMNWVRQAPGKGLEWVSFIDSRSSYIYYADSVKGRFTISRDNAKNSLYLQMNSLRAEDTAVYYCSKDDWFEELWGQGTLVTVSS VL: DIQMTQSPSSLSASVGDRVTITCRASQGIRNDLGWYQQKPGKAPKRLIYATSSLQSGVPSRFSGSGSGTEFTLTISSLQPEDFATYYCLHHNSFPWTFGQGTKVEIK",1.1,1.2,1.1,86,86,86,57,55,59,3840,17,7670,53,31,76,3.12,2.1,1.99,0.753,0.178,ELISA reading [9]: 0.072; ELISA reading (soluble KDR Ig4-7 domain [10]): 3.04; ELISA reading (soluble KDR Ig4-7 domain [11]): 2.14; FACS Geometric Mean Fluorescence (cynomolgus KDR): 108; ELISA reading (soluble KDR Ig4-7 domain [12]): 0.609; Kd (human KDR [13]): 0.2 nM; FACS Geometric Mean Fluorescence (bound VEGF165) (human KDR [14]): 81; % Inhibition (human KDR [15]): 40%
"24B3 (antibody, V domains shown, Fully human monoclonal antibody from a XenoMouse hybridoma (IgG2 or IgG4 strain), purified) VH: EVQLVESGGGLVKPGGSLRLSCAASGFTFSTYSMNWVRQAPGKGLEWVSFISGRSSYIYYADSVKGRFTISRDNAKNSLYLQMNSLRAEDTAVYYCSKDDWFEELWGQGTLVTVSS VL: DIQMTQSPSSLSASVGDRVTITCRASQGIRSDLGWYQQKPGKAPKRLIYATSSLQSGVPSRFSGSGSGTEFTLTISSLQPEDFATYYCLQHNRYPWTFGQGTKVEIK",2.2,2.1,2.3,81,78,84,90,97,82,12.1,8.1,16.2,54,37,72,3.39,2.75,3.02,1.58,0.304,ELISA reading [9]: 0.09; ELISA reading (soluble KDR Ig4-7 domain [10]): 3.47; ELISA reading (soluble KDR Ig4-7 domain [11]): 2.8; FACS Geometric Mean Fluorescence (cynomolgus KDR): 68.4; ELISA reading (soluble KDR Ig4-7 domain [12]): 1.45; Kd (human KDR [13]): 0.8 nM; FACS Geometric Mean Fluorescence (bound VEGF165) (human KDR [14]): 97; % Inhibition (human KDR [15]): 27%

# Reference: patent publication US20100260765A1 (AstraZeneca / MedImmune, published 2010)
